The values below come from patent publication US20240270821A1, “GIP/GLP1/GCG TRI-RECEPTOR AGONISTS AND USES THEREOF” (priority 2023, published 2024).

Numbering of substitutions follows the chain as printed. Starred links: 1 amine or outer side, 2 acyl side, 3 side chain; linkers in the order of their positions; H or OH if unused. Non-standard residues stand in square brackets, D forms with d. Groups on a side chain read outwards from the residue. No end group written: not given here. *: point of attachment. C18 diacid = O=C(O)CCCCCCCCCCCCCCCCC(=O)*; γGlu = O=C(O)[C@H](CCC(=O)[*:2])N[*:1]; 4Pal = N[C@@H](Cc1ccncc1)C(=O)O; αMeL = CC(C)C[C@](C)(N)C(=O)O; Dab = NCC[C@H](N)C(=O)O; AEEA = NCCOCCOCC(=O)O; Aib = CC(C)(N)C(=O)O

To fix the notation:
T1: human GIP receptor (human) (UniProt P48546)
T1 sequence (looked up): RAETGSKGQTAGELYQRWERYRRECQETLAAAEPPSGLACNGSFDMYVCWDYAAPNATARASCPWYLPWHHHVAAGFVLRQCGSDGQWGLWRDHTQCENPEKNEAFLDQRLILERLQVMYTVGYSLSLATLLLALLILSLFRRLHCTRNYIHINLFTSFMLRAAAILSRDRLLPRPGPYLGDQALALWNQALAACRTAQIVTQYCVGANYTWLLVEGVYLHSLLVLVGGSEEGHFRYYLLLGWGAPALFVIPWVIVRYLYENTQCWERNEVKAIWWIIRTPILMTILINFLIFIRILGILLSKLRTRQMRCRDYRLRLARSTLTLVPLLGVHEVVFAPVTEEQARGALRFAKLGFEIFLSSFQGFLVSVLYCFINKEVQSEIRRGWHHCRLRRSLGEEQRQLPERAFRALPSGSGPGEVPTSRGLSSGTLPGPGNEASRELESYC

B1: Example 205 (peptide)
chain: YXQGTFTSDFSXXLDKKAQXAFIEYLLEAGPSSGAPPPSGT
modifications: Aib, Orn, αMeL, D-Ala; acylated lysine; amide; synthetic construct; SITE 2: note = 2-Aminoisobutyric Acid; SITE 12: note = L-ornithine; SITE 13: note = alpha-methyl-leucine; SITE 17: note = Lysine is chemically modified through conjugation of the epsilon-amino group of the Lysine side chain with (gamma-Glu)3-CO-(CH2)16-CO2H; SITE 20: note = 2-Am
B2: Example 209 (peptide)
chain: B1 chain with T41S
modifications: Aib, Orn, αMeL, D-Ala, acylated Lys, C-terminal amide; synthetic construct; SITE 2: note = 2-Aminoisobutyric Acid; SITE 12: note = L-ornithine; SITE 13: note = alpha-methyl-leucine; SITE 17: note = Lysine is chemically modified through conjugation of the epsilon-amino group of the Lysine side chain with (2-[2-(2-Amino-ethoxy)-ethoxy]-acetyl)-(gamma-Glu)
B3: Example 212 (peptide)
chain: B1 chain with T41S
modifications: Aib, Orn, αMeL, D-Ala; acylated Lys; synthetic construct; SITE 2: note = 2-Aminoisobutyric Acid; SITE 12: note = L-ornithine; SITE 13: note = alpha-methyl-leucine; SITE 17: note = Lysine is chemically modified through conjugation of the epsilon-amino group of the Lysine side chain with (2-[2-(2-Amino-ethoxy)-ethoxy]-acetyl)-(gamma-Glu)
B4: Example 211 (peptide)
chain: B1 chain with T41X
modifications: non-natural residues, acylated Lys, C-terminal amide; synthetic construct; SITE 2: note = 2-Aminoisobutyric Acid; SITE 12: note = L-ornithine; SITE 13: note = alpha-methyl-leucine; SITE 17: note = Lysine is chemically modified through conjugation of the epsilon-amino group of the Lysine side chain with (2-[2-(2-Amino-ethoxy)-ethoxy]-acetyl)-(gamma-Glu)
B5: Example 222 (peptide)
chain: B1 chain with F10X, L27I, A29X, P31E, T41E
modifications: non-natural residues; Lys acylated C18 diacid; C-terminal amide; synthetic construct; SITE 2: note = 2-Aminoisobutyric Acid; SITE 10: note = 3-(4-Pyridyl)-L-alanine; SITE 12: note = L-ornithine; SITE 13: note = alpha-methyl-leucine; SITE 17: note = Lysine is chemically modified through conjugation of the epsilon-amino group of the Lysine side chain with (2-[2-(2-
B6: Example 214 (peptide)
chain: B1 chain with G34X
modifications: Lys acylated with AEEA-γGlu-C18 diacid; non-natural residues; C-amide; synthetic construct; SITE 2: note = 2-Aminoisobutyric Acid; SITE 12: note = L-ornithine; SITE 13: note = alpha-methyl-leucine; SITE 17: note = Lysine is chemically modified through conjugation of the epsilon-amino group of the Lysine side chain with (2-[2-(2-Amino-ethoxy)-ethoxy]-acetyl)-(gamma-Glu)
B7: Example 224 (peptide)
chain: YXQGTFTSDXSRXLDKKAQXAFIEYLIEXGESSGAPPPSGS
modifications: non-natural residues, C-terminal amide, acylated Lys with fatty diacid; synthetic construct; SITE 2: note = 2-Aminoisobutyric Acid; SITE 10: note = 3-(4-Pyridyl)-L-alanine; SITE 13: note = alpha-methyl-leucine; SITE 17: note = Lysine is chemically modified through conjugation of the epsilon-amino group of the Lysine side chain with (2-[2-(2-Amino-ethoxy)-ethoxy]-acetyl)
B8: Example 200 (peptide)
chain: B1 chain with A29X
modifications: non-natural residues, acylated Lys (AEEA-γGlu-C18 diacid), C-terminal amide; synthetic construct; SITE 2: note = 2-Aminoisobutyric Acid; SITE 12: note = L-ornithine; SITE 13: note = alpha-methyl-leucine; SITE 17: note = Lysine is chemically modified through conjugation of the epsilon-amino group of the Lysine side chain with (2-[2-(2-Amino-ethoxy)-ethoxy]-acetyl)-(gamma-Glu)
B9: Example 217 (peptide)
chain: B7 chain with X10F, R12K, S41E
modifications: Aib, αMeL, acylated Lys (AEEA-γGlu-C18 diacid), C-terminal amide; synthetic construct; SITE 2: note = 2-Aminoisobutyric Acid; SITE 13: note = alpha-methyl-leucine; SITE 17: note = Lysine is chemically modified through conjugation of the epsilon-amino group of the Lysine side chain with (2-[2-(2-Amino-ethoxy)-ethoxy]-acetyl)-(gamma-Glu)-CO-(CH2) 16-CO2H; SITE 20: n

Chain of human glucagon receptor (human) (P47871 26-477): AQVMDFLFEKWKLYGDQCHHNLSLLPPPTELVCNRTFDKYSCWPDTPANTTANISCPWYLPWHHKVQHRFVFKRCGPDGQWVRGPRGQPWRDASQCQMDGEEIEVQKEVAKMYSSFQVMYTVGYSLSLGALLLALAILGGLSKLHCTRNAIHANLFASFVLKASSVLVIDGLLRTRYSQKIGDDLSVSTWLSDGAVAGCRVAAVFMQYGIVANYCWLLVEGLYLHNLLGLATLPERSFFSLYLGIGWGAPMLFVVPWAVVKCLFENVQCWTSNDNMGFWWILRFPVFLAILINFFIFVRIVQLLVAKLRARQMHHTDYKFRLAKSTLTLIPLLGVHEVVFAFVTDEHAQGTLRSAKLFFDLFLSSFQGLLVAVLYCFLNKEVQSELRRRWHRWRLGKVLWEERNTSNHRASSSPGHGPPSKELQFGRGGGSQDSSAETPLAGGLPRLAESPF
Chain of human GLP-1R (SNAP-GLP-1R expressed in HEK293 cells) (human) (P43220 24-463): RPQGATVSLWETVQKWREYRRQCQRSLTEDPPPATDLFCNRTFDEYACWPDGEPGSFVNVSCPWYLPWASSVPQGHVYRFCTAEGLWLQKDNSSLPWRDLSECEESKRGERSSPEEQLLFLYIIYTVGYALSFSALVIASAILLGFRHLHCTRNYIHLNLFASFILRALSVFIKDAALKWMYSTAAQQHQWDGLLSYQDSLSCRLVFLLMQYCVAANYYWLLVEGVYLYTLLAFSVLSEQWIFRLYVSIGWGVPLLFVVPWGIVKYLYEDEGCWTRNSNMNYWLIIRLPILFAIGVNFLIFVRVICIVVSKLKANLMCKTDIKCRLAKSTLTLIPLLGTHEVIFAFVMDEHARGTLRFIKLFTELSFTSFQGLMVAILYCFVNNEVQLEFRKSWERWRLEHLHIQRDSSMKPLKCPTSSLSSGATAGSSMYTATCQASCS
Chain of hGLP-1R (P43220 24-463): as above

The first test deals with T1, human GIP receptor (human). Briefly: cell-based or functional assay.
Regarding B1, the Relative cAMP EC50 was 0.16 nM and the cAMP Rel EC50, nM (1% HSA) stood at 24.4 nM.
On to B2, for which the Relative cAMP EC50 came out at 0.129 nM.
For the molecule B3, the Relative cAMP EC50 came out at 0.13 nM.
B4 yielded a Relative cAMP EC50 of 0.116 nM and a cAMP Rel EC50, nM (1% HSA) of 20.6 nM.
B5 showed a Relative cAMP EC50 of 0.228 nM and a cAMP Rel EC50, nM (1% HSA) of 52.5 nM.
On to B6, for which the Relative cAMP EC50 worked out at 0.103 nM and the cAMP Rel EC50, nM (1% HSA) stood at 15.1 nM.
B7 came in with a Relative cAMP EC50 of 0.114 nM and a cAMP Rel EC50, nM (1% HSA) of 21.5 nM.
Take B8: the Relative cAMP EC50 was 0.0739 nM and the cAMP Rel EC50, nM (1% HSA) was determined as 13.7 nM.
In the same order, the values of B9 are 0.0897 nM and 15 nM.
Take Y[Aib]QGTFTSD[4Pal]S[Dab][αMeL]LDKK([AEEA-γGlu-C18 diacid])AQ[Aib]AFIEYLIE[Aib]GESSGAPPPSGS-NH2 [Example 188]: the Relative cAMP EC50, nM (0.1% casein) came to 0.193 nM and the cAMP Rel EC50, nM (1% HSA) is 43.8 nM.

Another test concerns the target human glucagon receptor (human) (UniProt P47871). Briefly: cell-based or functional assay.
On to B1, for which the Relative cAMP EC50 came out at 8.98 nM and the cAMP Rel EC50, nM (1% HSA) was determined as 397 nM.
As to B2, the Relative cAMP EC50 was 3.08 nM.
As to B3, the Relative cAMP EC50 was found to be 3.74 nM.
B4 showed a Relative cAMP EC50 of 2.05 nM and a cAMP Rel EC50, nM (1% HSA) of 370 nM.
B5 yielded a Relative cAMP EC50 of 2.33 nM and a cAMP Rel EC50, nM (1% HSA) of 440 nM.
Turning to B6, the Relative cAMP EC50 amounted to 2.49 nM and the cAMP Rel EC50, nM (1% HSA) worked out at 302 nM.
Consider B7, for which the Relative cAMP EC50 was found to be 1.91 nM and the cAMP Rel EC50, nM (1% HSA) came out at 452 nM.
Molecule B8 returned a Relative cAMP EC50 of 2.83 nM and a cAMP Rel EC50, nM (1% HSA) of 360 nM.
B9 displayed a Relative cAMP EC50 of 5.11 nM and a cAMP Rel EC50, nM (1% HSA) of 1570 nM.
Y[Aib]QGTFTSD[4Pal]S[Dab][αMeL]LDKK([AEEA-γGlu-C18 diacid])AQ[Aib]AFIEYLIE[Aib]GESSGAPPPSGS-NH2 [Example 188]: the Relative cAMP EC50, nM (0.1% casein) came to 10.8 nM and the cAMP Rel EC50, nM (1% HSA) was determined as 2920 nM.

The next test has as its target human GLP-1R (SNAP-GLP-1R expressed in HEK293 cells) (human) (UniProt P43220). Briefly: cell-based or functional assay.
Take B1: the GLP1R Internalization EC50 amounted to 49.4 nM and the Internalization % TOP was found to be 67.7%.
B2: the GLP1R Internalization EC50 is 83.1 nM and the Internalization % TOP came to 41.2%.
Consider B3, for which the GLP1R Internalization EC50 was 79.7 nM and the Internalization % TOP was 43%.
On to B4, for which the GLP1R Internalization EC50 is 57.4 nM and the Internalization % TOP stood at 26.9%.
For B5, the GLP1R Internalization EC50 was found to be 34.6 nM and the Internalization % TOP is 52.4%.
In turn, B6 came in with a GLP1R Internalization EC50 of 50.1 nM and an Internalization % TOP of 41.7%.
B7 came in with a GLP1R Internalization EC50 of 32.2 nM and an Internalization % TOP of 61.9%.
Turning to B8, the GLP1R Internalization EC50 came out at 86.1 nM and the Internalization % TOP is 39.2%.
Take B9: the GLP1R Internalization EC50 came to 27.6 nM and the Internalization % TOP turned out to be 58.2%.
Y[Aib]QGTFTSD[4Pal]S[Dab][αMeL]LDKK([AEEA-γGlu-C18 diacid])AQ[Aib]AFIEYLIE[Aib]GESSGAPPPSGS-NH2 [Example 188] registered a GLP1R Internalization EC50 of 44.7 nM and an Internalization % TOP of 40.2%.

Another test addresses hGLP-1R (Homo sapiens, UniProt P43220). Description: cell-based or functional assay.
The molecule B1 yielded a Relative cAMP EC50 of 2.71 nM and a cAMP Rel EC50, nM (1% HSA) of 234 nM.
Regarding B2, the Relative cAMP EC50 worked out at 1.78 nM.
As for B3, the Relative cAMP EC50 stood at 1.35 nM.
As for B4, the Relative cAMP EC50 worked out at 1.23 nM and the cAMP Rel EC50, nM (1% HSA) was 234 nM.
Take B5: the Relative cAMP EC50 is 3.64 nM and the cAMP Rel EC50, nM (1% HSA) was found to be 753 nM.
B6 showed a Relative cAMP EC50 of 1.22 nM and a cAMP Rel EC50, nM (1% HSA) of 186 nM.
In the same order, the values of B7 are 1.89 nM and 333 nM.
The molecule B8 had a Relative cAMP EC50 of 3.19 nM and a cAMP Rel EC50, nM (1% HSA) of 395 nM.
On to B9, for which the Relative cAMP EC50 stood at 0.667 nM and the cAMP Rel EC50, nM (1% HSA) stood at 130 nM.
The molecule Y[Aib]QGTFTSD[4Pal]S[Dab][αMeL]LDKK([AEEA-γGlu-C18 diacid])AQ[Aib]AFIEYLIE[Aib]GESSGAPPPSGS-NH2 [Example 188] returned a Relative cAMP EC50, nM (0.1% casein) of 3.43 nM and a cAMP Rel EC50, nM (1% HSA) of 436 nM.
